Reference: publication PMC3268006 (Journal of Molecular Biology, 2011)

Molecular target: matriptase (MT-SP1), human protease domain (human, UniProt Q9Y5Y6)
Assay: steady-state enzyme inhibition kinetics

Chain of matriptase (MT-SP1), human protease domain (Q9Y5Y6 615-855): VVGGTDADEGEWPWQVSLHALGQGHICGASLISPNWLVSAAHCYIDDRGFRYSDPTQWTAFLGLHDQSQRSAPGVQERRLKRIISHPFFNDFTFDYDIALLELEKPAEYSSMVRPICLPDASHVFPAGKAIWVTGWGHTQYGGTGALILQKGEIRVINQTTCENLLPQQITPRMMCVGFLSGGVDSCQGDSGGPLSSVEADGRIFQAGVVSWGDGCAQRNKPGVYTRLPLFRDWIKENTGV

| Ki [nM] | Binder |
| --- | --- |
| 1.5 | Fab A11 H R100aA (Fab, V domains shown) VH: EVQLVQSGGGLVKPGGSLRLSCAASGFTFSSYAMSWVRQAPGKGLEWVSAISGSGGSTYYADSVKGRFTISRDNSKNTLYLQMSSLRAEDTAVYYCVKDLGIAAARFVSGAFDIWGQGTMVTVSS VL: EIVLTQSPGTLSLSPGERATLSCRASQSVSSSYLAWYQQKPGQAPRLLIYGASTRATGIPARFSGSGSGTDFTLTINSLEPEDFAVYYCQQRSNWPPGYTFGQGTKVEIT |
| 180 | Fab A11 H R100bK (Fab, V domains shown) VH: EVQLVQSGGGLVKPGGSLRLSCAASGFTFSSYAMSWVRQAPGKGLEWVSAISGSGGSTYYADSVKGRFTISRDNSKNTLYLQMSSLRAEDTAVYYCVKDLGIAARKFVSGAFDIWGQGTMVTVSS VL: EIVLTQSPGTLSLSPGERATLSCRASQSVSSSYLAWYQQKPGQAPRLLIYGASTRATGIPARFSGSGSGTDFTLTINSLEPEDFAVYYCQQRSNWPPGYTFGQGTKVEIT |
| 180 | Fab A11 H R100bA (Fab, V domains shown) VH: EVQLVQSGGGLVKPGGSLRLSCAASGFTFSSYAMSWVRQAPGKGLEWVSAISGSGGSTYYADSVKGRFTISRDNSKNTLYLQMSSLRAEDTAVYYCVKDLGIAARAFVSGAFDIWGQGTMVTVSS VL: EIVLTQSPGTLSLSPGERATLSCRASQSVSSSYLAWYQQKPGQAPRLLIYGASTRATGIPARFSGSGSGTDFTLTINSLEPEDFAVYYCQQRSNWPPGYTFGQGTKVEIT |
| 1 | Fab S4 (Fab, V domains shown) VH: EVQLVQSGAEVKKPGSSVKVSCKASGGTFSSYAISWVRQAGQGLEWMGGIIPIFGTANYAQKFQGRVTITADESTSTAYMELSSLRSEDTAVYYCARTFHIRRYRSGYYDKMDHWGQGTLVTVSS VL: VLTQPPSVSGAPGQRVTISCSGSSSNIGSNYVSWYQQKPGTAPKLLIYDNNQRPSGVPDRFSGSKSGTSAVLAITGLQSEDEADYYCQSRDISQYVFGGGTKLTVL |
| 93 | Fab S4 H R100bA (Fab, V domains shown) VH: EVQLVQSGAEVKKPGSSVKVSCKASGGTFSSYAISWVRQAGQGLEWMGGIIPIFGTANYAQKFQGRVTITADESTSTAYMELSSLRSEDTAVYYCARTFHIRRYASGYYDKMDHWGQGTLVTVSS VL: VLTQPPSVSGAPGQRVTISCSGSSSNIGSNYVSWYQQKPGTAPKLLIYDNNQRPSGVPDRFSGSKSGTSAVLAITGLQSEDEADYYCQSRDISQYVFGGGTKLTVL |
| 110 | Fab S4 H R100bK (Fab, V domains shown) VH: EVQLVQSGAEVKKPGSSVKVSCKASGGTFSSYAISWVRQAGQGLEWMGGIIPIFGTANYAQKFQGRVTITADESTSTAYMELSSLRSEDTAVYYCARTFHIRRYKSGYYDKMDHWGQGTLVTVSS VL: VLTQPPSVSGAPGQRVTISCSGSSSNIGSNYVSWYQQKPGTAPKLLIYDNNQRPSGVPDRFSGSKSGTSAVLAITGLQSEDEADYYCQSRDISQYVFGGGTKLTVL |
